Source: the nanobody polyreactivity screen of Harvey et al. (2022)

Assay: yeast display, Sf9 membrane polyspecificity reagent, FACS + sequencing; frameworks hold sequencing errors
Summary of the method: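 Sorting gates, low and high (top ~1%), were placed on anti-HA fluorescence to track expression and on streptavidin fluorescence to track reagent binding. A clone's polyreactivity label is taken from the gate it came out of. The reagent was 10% biotinylated, detergent-solubilized Sf9 membrane, applied for 1 hour at 4 °C to galactose-induced yeast display cells.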

Row | Sequence | polyreactivity (PSR sort gate)
1 | QVQLVESGGGLVQAGGSLRLSCAASGSIIAGYTMGWYRQAPGKERELVAGIRRGGSTNYADSVKGRFTISRDNAKNTVYLQMNSLKPEDTAVYYCNAQRTRSYVLRTFDYWGQGTQVTVSS | high polyreactivity
2 | QVQLVESGGGLVQAGGSLRLSCAASGSIIATNAMGWYRQAPGKERELVAAISRSAGRTYYADSVKGRFTISRDNAKNTVYLQMNRLKPDDTAVYYCNAVFPGVTNQMDYWGQGTQVTVSS | high polyreactivity
3 | QVQLVESGGGLVQAGGSLRLSCAASGSIIDANAMGWYRQAPGKERELVAAITSGDSTYYADSVKGRFTISRDNAKNTVYLQMNSLKPEDTAVYYCAADPVWHYYRMDYWGQGTQVTVSS | low polyreactivity
4 | QVQLVESGGGLVQAGGSLRLSCAASGSIIDRNAMGWYRQAPGKERELVAAITSGGSTYYADSVKGRFTISRDNAKHTDYLKLNSLKPEDTAVYYCNADTDPPVPLYYWGQGSQVTVSS | low polyreactivity
5 | QVQLVESGGGLVQAGGSLRLSCAASGSIIDYYAMGWYRPAPGKERELVAAISESSDSTYYADSVKGRFTISRDNAKNTVYLQMNSLTPEDTAVYYCAADSLTPKSASDYWGQGTQVTVSS | low polyreactivity
6 | QVQLVESGGGLVQAGGSLRLSCAASGSIIDYYAMGWYRQAPGKERELVAAISSSVGITYYADSVKGRFTISRDNAKNTVYLQMNSLKPEDTAVYYCAADLYGWYFYNQEYDSWGQGTQVTVSS | low polyreactivity
7 | QVQLVESGGGLVQAGGSLRLSCAASGSIIFSYAMGWYRQAPGKEREFVAAITGSGGSTYYADSVKGRFTISRDNAKNTVYLQMNSLKPEDTAVYYCARPQWRDWYGYWGQGTQVTVSS | low polyreactivity
8 | QVQLVESGGGLVQAGGSLRLSCAASGSIIGDNTMGWYRQAPGKERELVATIRKNGASTTYADSVKGRFTISRDNAKNTVYLQMNSLKPEDTAVYYCARDHHTKYNYWGQGTQVTVSS | low polyreactivity
9 | QVQLVESGGGLVQAGGSLRLSCAASGSIIGIYAMGWYRQAPGKERELVAAISWSGGSTYYADSVKGRFTISRDNAKNTVYLQMNSLKPEDTAVYYCNAYPAYLDDYWGQGTQVTVSS | low polyreactivity
10 | QVQLVESGGGLVQAGGSLRLSCAASGSIIGNYAMGWYREAPGKERELVAAISWSGGSTYYADSVKGRFTISRDNAKNTVYLQMNSLKPEDTAVYYCAAVDYYRYRSDYDYWGQGTQVTVSS | low polyreactivity
11 | QVQLVESGGGLVQAGGSLRLSCAASGSIIGSYAMGWYRQAPGKERELVAAINSGGSTNYADSVKGRFTISRDNAKNTVYLQMNSLKPEDTAVYYCASRQVYKFRRYDYWGQGTQVTVSS | high polyreactivity
12 | QVQLVESGGGLVQAGGSLRLSCAASGSIIGSYAMGWYRQAPGKERELVAAISKSGGSTYYADSVKGRFTISRDNAKNTVYLQMNSLKPEDTAVYYCAARAYRYAYRAYDYWGQGTQVTVSS | high polyreactivity
13 | QVQLVESGGGLVQAGGSLRLSCAASGSIIHPYTMGWYRPAPGKERELVAGISESSDSTYYADSVKGRFTISRDNAKNTVYLQMNSLKPEYTAVYYCNRDHDWPLSVLEVDYWGQGTQVTVSS | low polyreactivity
14 | QVQLVESGGGLVQAGGSLRLSCAASGSIIHTNTMGWYRQAPGKERELVAAISGGSTYYADSVKGRFTISRDNAKNTVYLQMNSLKPEDTAVYYCAAGWSVWYQDFDYWGQGSQVTVSS | high polyreactivity
15 | QVQLVESGGGLVQAGGSLRLSCAASGSIIKYYAMGWYRQAPGKEREFVAAITASSSRTYYADSVKGRFTISRDNAKNKVYLQMNSLKPEDTAVYYCAAVGPGRRRDYWGQGTQVTVSS | high polyreactivity
16 | QVQLVESGGGLVQAGGSLRLSCAASGSIILGYAMGWYRQAPGKERELVAAIRRSSAGTYYADSVKGRFTISRDNAKNTVYLQMISLKPEDTAVYYCAWYPATYRWAYYYWGQGTQVTVSS | high polyreactivity
17 | QVQLVESGGGLVQAGGSLRLSCAASGSIINRYAKGWYRQAPGKERELVAAITQSGGRTYYADSVKGRFTISRDNAKNTVYLQMNSLNPEDTAVYYCNAVRWYLYDYWGQGTQVTVSS | high polyreactivity
